In article PMC9570017, “Unorthodox PCNA Binding by Chromatin Assembly Factor 1” (International Journal of Molecular Sciences, 2022):
Each block holds one molecule with its values, some of them ahead of it. No end group written: not given here.

What was measured:
human PCNA = target: T1, human PCNA (Homo sapiens, UniProt P12004); test: Isothermal titration calorimetry (ITC), PIP peptide titrated into wild-type PCNA; type: binding
T1 construct: His6 (C); made in house; host or cells: E. coli Codon Plus BL21(DE3) pLysS
From the text: The wild-type and R426D peptides were expressed as GST fusions in E. coli, purified to homogeneity (see Materials and Methods) and used in isothermal titration calorimetry (ITC) assays with human PCNA purified from E. coli.
Recombinant PCNA, PCNA-Y250I, and the PIP peptides (wild-type, R426D) were expressed and purified as described in the Supplementary Materials section—“Expression and purification of recombinant proteins”. The proteins were dialyzed against three 4-litre changes of ITC buffer containing 10 mM sodium phosphate, pH 7.0, and 10 mM NaCl at 4 °C overnight. The concentrations of PCNA and PIP peptides were determined by measuring tyrosine absorption at A280nm. ITC titrations of peptides into PCNA were performed at 23 °C in the ITC buffer (10 mM sodium phosphate, pH 7.0, 10 mM NaCl) using a MicroCal VP-ITC system. The concentrations of injected wild-type and mutant PIP in the syringe varied from 200 to 500 μM, whereas PCNA in the ITC sample cell varied depending on the experiment from 20 to 50 μM PCNA monomer. The protein and peptide samples were degassed before the ITC run. Data analysis was performed using the MicroCal Origin 7.0 software (OriginLab Corporation, Northampton, MA, USA) and all experiments fit the single binding site model.
Supplementary Materials-Expression and purification of recombinant proteins
S1. Expression and purification of GST-PIP fusion proteins in Escherichia coli Wild-type p150 PIP and R426D peptides were constructed as GST-fusion proteins with a tyrosine at the C-terminus of the peptide. The C-terminal tyrosine was added to aid in peptide detection during the purification by measuring the absorbance at 280 nm. The DNA fragments encoding the GST fusion proteins were inserted into a pGEX-TEV vector, which is essentially a modified pGEX-2T vector where the thrombin cleavage site was replaced with a TEV cleavage site. The pGEX-TEV plasmid was digested with BamHI and EcoRI and ligated to DNA fragments encoding either the p150 PIP wild-type and R426D. The plasmids pGEX-TEV-PIP wild type and pGEX-TEV-PIP R426D were con-firmed by DNA sequencing and then expressed in Escherichia coli host strain TOPP2 (Strat-agene) with 100 µg/ml ampicillin to saturation at 37°C. The next day, the saturated cells were diluted to 0.05 OD measured at A600 nm and the cells were grown at 37°C until the cells reach the mid-exponential phase of 0.6-0.8 at OD A600 nm. The cells were then in-duced with 1 mM isopropyl-D-thiogalactopyranoside (IPTG) for 4 h. Eight litres of cell culture were grown each for the wild-type and R426D mutant. The cells were then har-vested by centrifugation in an Avanti J-26XP high-performance centrifuge from Beckman Coulter with a fixed angle rotor (JLA-8.1000) at 9000 x g for 30 min at 4°C. The pellet from 1 litre cells equivalent was lysed in 10 ml of lysis buffer containing 20 mM Tris pH 7.5, 1 M NaCl, 0.2 mM EDTA, 1 mM DTT, 50 µg/ml lysozyme, 1 mM AEBSF and one tablet of cOmplete™ Mini EDTA-free Protease Inhibitor Cocktail Tablets (Roche). The cell pellet was sonicated in the lysis buffer on ice, at power output level 4 with 10 seconds pulse on and 30 seconds off at 6 watts using a Misonix 3000 Ultrasonic cell disruptor and wider probe. The lysate was clarified by centrifugation for 30 min in an Avanti J-26XP with a fixed angle rotor 25.50 at 30966 x g at 4°C. The clarified supernatant was incubated on a nutator for 6 h at 4°C with 10 ml of glutathione-Sepharose (GSH) resin (Amersham) pre-washed and equilibrated with lysis buffer. After incubation the GSH resin was pelleted, the unbound supernatant was removed, and the resin was washed thrice with lysis buffer and twice with Tobacco Etch Virus (TEV) protease buffer (20 mM sodium phosphate pH 6.5, 50 mM NaCl, 2 mM DTT). The peptide was cleaved from the GSH resin by incubating in the presence of TEV protease overnight at 4°C. The next day, the supernatant was har-vested by centrifugation, and the GSH resin was washed twice with 20 mM sodium phos- […]

[1] = target: T2, proliferating cell nuclear antigen (PCNA), wild type (human, UniProt P12004 1-261); test: ITC; peptide (200 to 500 uM in the syringe) titrated into PCNA (20 to 50 uM monomer in the cell); 10 mM sodium phosphate pH 7.0, 10 mM NaCl, 23 °C; single binding site model; apparent Kd; settings: both partners purified
T2 construct: human PCNA purified from E. coli; Homo-trimeric ring (88.7 kDa as printed); Human is stated for the ITC; In the functional rows PCNA is the endogenous protein of the human HEK-293 S100 extract; also called human PCNA; source: E. coli, purified

mouse NIH3T3 cells = test: Localization of GFP-p150 relative to PCNA replication foci in mid S-phase NIH3T3 cells; type: cell-based; settings: for localization to heterochromatin foci: DAPI staining
From the text: Cells in early S-phase show numerous small PCNA foci distributed throughout the nucleus. These foci can be resolved from each other using super-resolution microscopy but are difficult to resolve from each other by confocal microscopy. This makes protein localization to early S-phase PCNA foci difficult to assess using conventional tools for microscopy. Mid S-phase is the stage when perinuclear and peri-nucleolar chromatin are replicated. The corresponding PCNA foci are relatively large and distant from each other, making co-localization of a protein of interest with PCNA straightforward. Late S-phase is the stage when pericentric heterochromatin replicates. […] Because of these constraints, we focused our attention on cells with patterns of PCNA foci characteristic of mid S-phase. As reported in previous studies, we observed a distinct immunostaining pattern for PCNA with the monoclonal antibody PC10. During mid S-phase, staining of PCNA with PC10 occurred within foci located around the periphery of the nuclear envelope (Figure 4B, top panel, PC10). […] Asynchronously proliferating mouse NIH 3T3 cells were transduced with lentiviral vectors, and expression of wild-type and mutant forms of GFP-p150 was induced with doxycycline. Cells were fixed and permeabilized for PCNA detection with the PC10 monoclonal antibody. Mid-S phase cells were identified based upon their stereotypical pattern of PCNA staining at the nuclear periphery. […] The Pearson’s correlation coefficient of GFP WT-mp150 was 0.6, and 0.25 for the mutant GFP-p150 R426D. This is consistent with previous observations, that when CAF-1 is unable to bind to PCNA, it prematurely associates with pericentric heterochromatin in early and mid S-phase.
To study the localization of GFP CAF-1 p150 wild-type and mutants relative to that of PCNA, cDNAs encoding mouse p150 were cloned into a doxycycline-inducible lentiviral vector pCW-Cas9 plasmid encoding a TetON (minimal CMV) promoter (Addgene plasmid 50661). The Cas9 insert was replaced by wild-type or mutant mouse CAF-1 p150 using the restriction enzymes NheI and BamHI. GFP-p150 wild-type and mutant fusion proteins were excised from the EGFP-C1 vector (Clonetech) using Nhe1 and BamH1 restriction enzymes as previously reported. NheI and BamHI digested fragments were run on 0.8% agarose gel and the corresponding DNA bands: vector—pCW-Cas9 (7036 bp) and inserts—wild-type mp150, R426D (3983 bp) were gel purified using Qiagen DNA extraction spin prep columns. Purified DNAs were ligated using the Takara DNA ligase enzyme, following the manufacturer’s recommended protocol. Positive clones were selected on Luria-Bertani medium containing 100 µg/mL ampicillin, and after DNA isolation, the clones were verified by DNA sequencing. […]

T2 sequence (P12004 whole entry): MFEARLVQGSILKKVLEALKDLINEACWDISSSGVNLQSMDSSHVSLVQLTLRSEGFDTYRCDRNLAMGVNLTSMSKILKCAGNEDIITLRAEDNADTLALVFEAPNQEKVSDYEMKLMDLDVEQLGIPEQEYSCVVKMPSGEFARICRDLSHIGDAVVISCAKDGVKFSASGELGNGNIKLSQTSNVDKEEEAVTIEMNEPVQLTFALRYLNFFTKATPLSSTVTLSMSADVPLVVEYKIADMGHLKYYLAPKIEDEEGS
T1 sequence (P12004 whole entry): as above

Kd (result in words) (human PCNA; ITC at 296 K, 10 mM Na-phosphate (pH 7.0), 10 mM NaCl, R426D): No binding | heat exchange / binding to wild-type PCNA (human PCNA; ITC, 23 °C, 10 mM sodium phosphate, pH 7.0, 10 mM NaCl): did not observe any heat exchange
Molecule: KAEITDFFQKPKT [CAF-1 PIP R426D, R426D p150 PIP expressed as GST fusion with C-terminal tyrosine, TEV-cleaved and purified, used for ITC]

Kd [1]: 24 µM | dH [1]: -1.87 kcal/mol | stoichiometry N [1]: 0.83
B1: CAF-1 PIP wild-type peptide (expressed as a GST fusion) (peptide)
chain: IKAEKAEITRFFQKPKTPQA
modifications: also: expressed as a GST fusion

B2: GFP-p150 R426D: GFP fusion of mouse CAF-1 p150 with R426D mutation (protein, UniProt Q9QWF0 1-911, looked up, variant R426D)
Chromatin assembly factor 1 …: MLEEPEAATRTAAAVDCKDRPGFPVKRLIQARLPFKRLNLVPKEKVEEDTSPKAAVESKVPDLQLSLGTFESQCHTGSHVGLSTKLVGGQGPIDSFLRATIKPVPSVVIIDLTENCSDIPDSPEGHSELSPDTAGVVTTVEGAAKQQEHSAAELCLLETPSDITCHMEEEPGSPGDPKRTGDCQAGSLQSCPELTPGSRTCPTKELSSWSKAGDLLFIEKVPVVVLEDILATKPSIASLPMMSLDRSVTSESEILESCPEDDSILSHSSTNSSSPTSSPEGPSTPPEHRGGRSSPSTPACRVAKNFVKGSTEKGRSKLHRDREQQREEKEKLREEIRRAKEEARKKKEEEKELKEKERREKREKDEKEKAEKQRLKEEKRKERQEALEAKLEEKRKKEEEKRLREEEKRLREEEKRIKAEKAEITDFFQKPKTPQAPKTLAGSCGKFAPFEIKEHMVLAPRCRAALDQDLCDQLDQLLQQQSVASTFLSDLKSRLPLRSGPTRVCGHDTDIMNRDVVIVESSKVDGVSERKKFGRMKLLQFSENHRPAYWGTWNKKTAIIRPRNPWAQDKDLLDYEVDSDDEWEEEEPGESLSHSEGDEDDDVGEDEDEDDGFFVPHGYLSEDEGVTEECADPENHKVHQKLKAKEWDELLAKGKRFRVLQPVHVGCVWASEAANCTSSDLKLLQQFTACLLDVASPDEPEPGASRREKRDQHILAQLLPLLHGNVNGSKVIIHEFQEQCRRGLLTLPSPTPHLQMPNLEDAVAVPSKARLKRLISENSAYEKRPNFRMCWYVHPEVLKSFGQECLPVPCQWTYITTMPSAPREDSGSASTEGPGQSTPMLLKRKPAATMCITQFMKKRRYDGQVGSGDMDGFQADTEEDEEDDTDCMIIDVPDVGSDVSEAPIPAPTLCK
modifications: GFP fusion
notes: GFP fusion of mouse CAF-1 p150 with R426D mutation
Pearson’s correlation coefficient (mouse NIH3T3 cells; GFP-p150 vs PCNA (PC10), mid S-phase NIH3T3 cells, doxycycline 2 µg/mL): 0.25 | localization to heterochromatin foci (mouse NIH3T3 cells; mid S-phase): anomalously found largely within the nuclear interior and the large heterochromatic foci | localization to heterochromatin foci (mouse NIH3T3 cells; mid S-phase, listed as CAF-1 p150 R426D): more localized to the pericentric heterochromatin | localization to PCNA foci at nuclear periphery (mouse NIH3T3 cells; mid S-phase, confocal microscopy, PC10 staining): did not co-localize with PCNA foci at the nuclear periphery
